This note sets out measurements from patent US20100260668A1 (published 2010).

Where “and” joins values, the source holds several entries; their conditions need not be identical. Identical values can stand only once.

Assay [1] concerns the target T1, IGF1R ECD (UniProt P08069 31-935, limits assumed).
T1 construct: extracellular domain; Bought reagent
The assay is described as follows: Biacore SPR. For orientation: Surface plasmon resonance follows binding to a sensor surface in real time, without labels.

For assay [2], the target named is T2, recombinant human HGF (human, UniProt P14210 32-728).
T2 construct: The target there is entered as this HGF; also called hepatocyte growth factor
The assay is described as follows: competition ELISA: DVD-Ig co-incubated with 2 nM soluble c-Met Fc on coated HGF (competitor c-Met Fc). (In an ELISA, binding on a coated surface is turned into a signal by an enzyme label.)

Assay [3] deals with NRP1 (Neuropilin-1 Npn-1-His tag) (UniProt O14786-2 22-644). The assay is described as follows: SPR (Biacore); parent antibody.
For assay [4], the target named is T3, DLL4 (DLL4 ECD/His tag, R&D Systems 1506-D4-050) (UniProt Q9NR61 27-529).
T3 construct: extracellular domain; not shown: His tag
The assay is described as follows: Direct bind ELISA on DLL4; DLL4 domain C-term., HC short, LC long.

Assay [5] has as its target T4, IGF-2 (UniProt P01344 25-91).
T4 construct: Bought reagent
The assay is described as follows: Biacore SPR.

The target in assay [6] is T5, IGF-I (UniProt P05019 49-118).
T5 construct: Bought reagent; also called IGF1
The assay is described as follows: Biacore SPR.

The target in assay [7] is T6, PlGF (Placental GF) (UniProt P49763-2 21-149, limits assumed).
T6 sequence (looked up): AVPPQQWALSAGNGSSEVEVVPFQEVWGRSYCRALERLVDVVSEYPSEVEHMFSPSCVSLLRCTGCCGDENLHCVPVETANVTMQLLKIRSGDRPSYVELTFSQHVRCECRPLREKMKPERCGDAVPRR
The assay is described as follows: SPR (Biacore); parent antibody.

Assay [8] deals with T7, ErbB3 on A431 cells (human, UniProt P21860 20-1342). The assay is described as follows: cell-based or functional assay.
Assay [9] deals with T7, ErbB3 on A431 cells. The assay is described as follows: cell-based or functional assay. This is another data set of the same source.
Assay [10] concerns the target T8, HGF (UniProt P14210 32-728). The assay is described as follows: SPR (Biacore); C-terminal VD.
For assay [11], the target named is T8, HGF. The assay is described as follows: SPR (Biacore); parent antibody.

T8 sequence (P14210 32-728 limits assumed): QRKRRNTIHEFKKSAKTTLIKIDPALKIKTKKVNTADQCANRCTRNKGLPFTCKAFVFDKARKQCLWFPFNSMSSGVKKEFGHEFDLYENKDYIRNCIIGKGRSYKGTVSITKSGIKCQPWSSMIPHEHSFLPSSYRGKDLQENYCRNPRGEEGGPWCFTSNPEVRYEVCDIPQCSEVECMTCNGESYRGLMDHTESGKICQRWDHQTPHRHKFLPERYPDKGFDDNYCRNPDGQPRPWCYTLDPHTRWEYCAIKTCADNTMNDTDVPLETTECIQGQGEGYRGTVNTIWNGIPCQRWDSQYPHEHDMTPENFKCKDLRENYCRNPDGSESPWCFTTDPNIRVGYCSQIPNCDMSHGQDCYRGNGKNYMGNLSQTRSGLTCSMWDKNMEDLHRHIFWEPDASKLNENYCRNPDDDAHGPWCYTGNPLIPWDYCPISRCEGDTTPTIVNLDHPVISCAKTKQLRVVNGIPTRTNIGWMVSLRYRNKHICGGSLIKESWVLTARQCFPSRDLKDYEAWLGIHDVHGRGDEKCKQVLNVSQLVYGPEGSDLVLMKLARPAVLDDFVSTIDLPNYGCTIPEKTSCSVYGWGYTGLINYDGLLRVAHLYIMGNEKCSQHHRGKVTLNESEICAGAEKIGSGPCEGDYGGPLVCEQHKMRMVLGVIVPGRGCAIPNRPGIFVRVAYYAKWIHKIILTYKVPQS
T2 sequence (P14210 32-728 limits assumed): as above

B1: AB011 (antibody, human IgG1, kappa, V domains shown)
VH: EVQLLESGGGLVQPGGSLRLSCTASGFTFSSYAMNWVRQAPGKGLEWVSAISGSGGTTFYADSVKGRFTISRDNSRTTLYLQMNSLRAEDTAVYYCAKDLGWSDSYYYYYGMDVWGQGTTVTVSS
VL: DIQMTQFPSSLSASVGDRVTITCRASQGIRNDLGWYQQKPGKAPKRLIYAASRLHRGVPSRFSGSGSGTEFTLTISSLQPEDFATYYCLQHNSYPCSFGQGTKLEIKR
For B1, in assay [1], binding was characterised by a dissociation constant (Kd) of 0.848 nM; the koff (usually the rate constant with which the complex falls apart) stood at 6.21e-05 s⁻¹; the kon – broadly, the second-order rate constant of association – worked out at 73200 M⁻¹ s⁻¹.

B2: DVD033 (RON (seq. 1) N-terminal / HGF (seq. 1) C-terminal DVD-Ig) (bispecific antibody, human IgG1, kappa)
heavy: not shown
light: DVVMTQSPLSLPVTPGEPASISCRSSQSLLHSNGFNYVDWYLQKPGQSPHLLIYFGSYRASGVPDRFSGSGSGTDFTLKISRVEAEDVGVYYCMQALQTPPWTFGQGTKVEIRRTVAAPDIQMTQSPSSVSASVGDRVTITCRASQGISSWLAWYQQKPGKAPNLLIYEASSLQSGVPSRFGGSGSGTDFTLTISSLQPEDFATYYCQQANGFPWTFGQGTKVEIKRTVAAPSVFIFPPSDEQLKSGTASVVCLLNNFYPREAKVQWKVDNALQSGNSQESVTEQDSKDSTYSLSSTLTLSKADYEKHKVYACEVTHQGLSSPVTKSFNRGEC
notes: also called DVD033H/DVD033L
Consider B2, for which the IC50 (as a rule, the point on the concentration scale where inhibition reaches its midpoint) in assay [2] came out at 8.7 nM.

B3: AB016 (antibody, human IgG1, kappa, V domains shown)
VH: EVQLVESGGGLVQPGGSLRLSCAASGFSFSSEPISWVRQAPGKGLEWVSSITGKNGYTYYADSVKGRFTISADTSKNTAYLQMNSLRAEDTAVYYCARWGKKVYGMDVWGQGTLVTVSS
VL: DIQMTQSPSSLSASVGDRVTITCRASQSISSYLAWYQQKPGKAPKLLIYGASSRASGVPSRFSGSGSGTDFTLTISSLQPEDFATYYCQQYMSVPITFGQGTKVEIKR
notes: also called AB016VH; AB016VL
Take B3: in assay [3], the Kd (usually the concentration at which binding is half-saturated) came to 2.67 nM, the koff is 0.00039 s⁻¹ and the kon was 147000 M⁻¹ s⁻¹.

B4: DVD484 (VEGF/DLL4 DVD-Ig) (bispecific antibody, human IgG1)
VH: EVQLVESGGGLVQPGGSLRLSCAASGFTISDYWIHWVRQAPGKGLEWVAGITPAGGYTYYADSVKGRFTISADTSKNTAYLQMNSLRAEDTAVYYCARFVFFLPYAMDYWGQGTLVTVSSASTKGPEVQLVESGGGLVQPGGSLRLSCAASGFTFTDNWISWVRQAPGKGLEWVGYISPNSGFTYYADSVKGRFTISADTSKNTAYLQMNSLRAEDTAVYYCARDNFGGYFDYWGQGTLVTVSS
VL: DIQMTQSPSSLSASVGDRVTITCRASQDVSTAVAWYQQKPGKAPKLLIYSASFLYSGVPSRFSGSGSGTDFTLTISSLQPEDFATYYCQQSYTTPPTFGQGTKVEIKRTVAAPSVFIFPPDIQMTQSPSSLSASVGDRVTITCRASQDVSTAVAWYQQKPGKAPKLLIYSASFLYSGVPSRFSGSGSGTDFTLTISSLQPEDFATTYYCQQSYTGTVTFGQGTKVEIKR
notes: HC linker short, LC linker long; also called DVD484H; DVD484L
On to B4, for which the EC50 (in general, the concentration at which the effect is half-maximal) in [4] is 1.75 nM.

B5: DVD532 (VEGF/DLL4 DVD-Ig) (bispecific antibody, human IgG1)
VH: EVQLVESGGGLVQPGGSLRLSCAASGFTISDYWIHWVRQAPGKGLEWVAGITPAGGYTYYADSVKGRFTISADTSKNTAYLQMNSLRAEDTAVYYCARFVFFLPYAMDYWGQGTLVTVSSASTKGPEVQLQQSGPELEKPGASVKISCKASGYSFTGYNMNWVKQSNGKSLEWIGNIDPYFGGTNYNQKFKGKATLTVDKSSSTAYMQLKSLTSEDSAVYYCARNYDYDGGCFDYWGQGTTLTVSS
VL: DIQMTQSPSSLSASVGDRVTITCRASQDVSTAVAWYQQKPGKAPKLLIYSASFLYSGVPSRFSGSGSGTDFTLTISSLQPEDFATYYCQQSYTTPPTFGQGTKVEIKRTVAAPSVFIFPPQAVVTQESALTTSPGETVTLTCRSSTGAVTTSNYANWVQEKPDHLFTGLIGGTNNRAPGVPARFSGSLIGDKAALTITGAQTEDEAIYFCALWYSNHWVFGGGTKLTVLG
notes: HC linker short, LC linker long; also called DVD532H; DVD532L
On to B5, for which the EC50 in assay [4] stood at 1.43 nM. This EC50 and that of the molecule before are within 1.5-fold of each other.

B6: AB010 (antibody, human IgG1, lambda, V domains shown)
VH: QVQLVQSGAEVKKPGASVKVSCKASGYTFTSYDINWVRQATGQGLEWMGWMNPNSGNTGYAQKFQGRVTMTRNTSISTAYMELSSLRSEDTAVYYCARDPYYYYYGMDVWGQGTTVTVSS
VL: QSVLTQPPSVSAAPGQKVTISCSGSSSNIENNHVSWYQQLPGTAPKLLIYDNNKRPSGIPDRFSGSKSGTSATLGITGLQTGDEADYYCETWDTSLSAGRVFGGGTKLTVLG
notes: also called anti-IGF1,2 parent antibody
For B6, in [5], the Kd was 0.000423 nM and < 0.000299 nM; the koff is 2.74e-06 s⁻¹ and < 1e-06 s⁻¹; the kon is 6.47e+06 M⁻¹ s⁻¹ and 3.35e+06 M⁻¹ s⁻¹. Further, in [6], binding was put at a Kd of 0.388 nM, the koff was found to be 0.00123 s⁻¹ and the kon is 3.17e+06 M⁻¹ s⁻¹.

B7: AB047 (antibody, human IgG1, kappa, V domains shown)
VH: QVQLQQSGAELVKPGASVKISCKASGYTFTDYYINWVKLAPGQGLEWIGWIYPGSGNTKYNEKFKGKATLTIDTSSSTAYMQLSSLTSEDTAVYFCVRDSPFFDYWGQGTLLTVSS
VL: DIVLTQSPDSLAVSLGERVTMNCKSSQSLLNSGMRKSFLAWYQQKPGQSPKLLIYWASTRESGVPDRFTGSGSGTDFTLTISSVQAEDVAVYYCKQSYHLFTFGSGTKLEIKR
notes: also called AB047VH; AB047VL
With B7, in assay [7], the Kd worked out at 0.0285 nM, the koff was 0.000108 s⁻¹ and the kon worked out at 3.8e+06 M⁻¹ s⁻¹.

B8: AB062 (anti-ErbB3 (seq. 1) parent antibody) (antibody, human IgG1, kappa, V domains shown)
VH: QVQLQQWGAGLLKPSETLSLTCAVYGGSFSGYYWSWIRQPPGKGLEWIGEINHSGSTNYNPSLKSRVTISVETSKNQFSLKLSSVTAADTAVYYCARDKWTWYFDLWGRGTLVTVSS
VL: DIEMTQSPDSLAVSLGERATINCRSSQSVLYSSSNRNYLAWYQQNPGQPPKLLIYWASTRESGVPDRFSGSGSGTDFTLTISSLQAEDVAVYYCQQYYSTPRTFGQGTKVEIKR
In the case of B8, in [8], the “Inhibition Of EGFR Phosphorylation (% Inhibition At 60 nM Ab/DVD)” value came out at 0% and the “Inhibition Of ErbB3 Phosphorylation (% Inhibition At 60 nM Ab/DVD)” value was found to be 72%. Besides, in assay [9], the “Inhibition Of A431 Proliferation (% Inhibition At 2.4 nM Ab/DVD)” value was 14% and the “Inhibition Of A431 Proliferation (% Inhibition At 21.6 nM Ab/DVD)” value stood at 27%.

B9: DVD462 (VEGF/DLL4 DVD-Ig) (bispecific antibody, human IgG1)
VH: EVQLVESGGGLVQPGGSLRLSCAASGFTISDYWIHWVRQAPGKGLEWVAGITPAGGYTYYADSVKGRFTISADTSKNTAYLQMNSLRAEDTAVYYCARFVFFLPYAMDYWGQGTLVTVSSASTKGPQVQLVQSGAEVKKPGASVKISCKASGYSFTAYYIHWVKQAPGQGLEWIGYISSYNGATNYNQKFKGRVTFTTDTSTSTAYMELRSLRSDDTAVYYCARDYDYDVGMDYWGQGTLVTVSS
VL: DIQMTQSPSSLSASVGDRVTITCRASQDVSTAVAWYQQKPGKAPKLLIYSASFLYSGVPSRFSGSGSGTDFTLTISSLQPEDFATYYCQQSYTTPPTFGQGTKVEIKRTVAAPSVFIFPPDIVMTQSPDSLAVSLGERATISCRASESVDNYGISFMKWFQQKPGQPPKLLIYAASNQGSGVPDRFSGSGSGTDFTLTISSLQAEDVAVYYCQQSKEVPWTFGGGTKVEIKR
notes: HC linker short, LC linker long; also called DVD462H; DVD462L
For the molecule B9, the EC50 in assay [4] was 7.99 nM. That is a single-digit nanomolar value.

B10: DVD045 (bispecific antibody, human IgG1, kappa)
heavy: not shown
light: DIQMTQSPSSLSASVGDRVTITCSASQDISNYLNWYQQKPGKAPKVLIYFTSSLHSGVPSRFSGSGSGTDFTLTISSLQPEDFATYYCQQYSTVPWTFGQGTKVEIKRTVAAPDIQMTQSPSSVSASVGDRVTITCRASQGISSWLAWYQQKPGKAPNLLIYEASSLQSGVPSRFGGSGSGTDFTLTISSLQPEDFATYYCQQANGFPWTFGQGTKVEIKRTVAAPSVFIFPPSDEQLKSGTASVVCLLNNFYPREAKVQWKVDNALQSGNSQESVTEQDSKDSTYSLSSTLTLSKADYEKHKVYACEVTHQGLSSPVTKSFNRGEC
notes: N-terminal VD VEGF, C-terminal VD HGF; also called DVD045H; DVD045L
Regarding B10, in assay [10], the Kd came to 0.901 nM, the koff was determined as 0.000166 s⁻¹ and the kon was 184000 M⁻¹ s⁻¹.

B11: DVD045 (VEGF (seq. 1) N-terminal / HGF (seq. 1) C-terminal DVD-Ig, linker set 1) (bispecific antibody, human IgG1, kappa)
heavy: not shown
light: B10 light
notes: also called DVD045H/DVD045L
Regarding B11, the IC50 in assay [2] was greater than 100 nM.

B12: AB012 (antibody, human IgG1, kappa, V domains shown)
VH: QVQLVESGGGLVKPGGSLRLSCAASGFTFSDYYMSWIRQAPGKGLEWVSYISSSGSTIYYADSVKGRFTISRDNAKNSLYLQMNSLRAEDTAVYYCARDEYNSGWYVLFDYWGQGTLVTVSS
VL: DIQMTQSPSSVSASVGDRVTITCRASQGISSWLAWYQQKPGKAPNLLIYEASSLQSGVPSRFGGSGSGTDFTLTISSLQPEDFATYYCQQANGFPWTFGQGTKVEIKR
notes: also called AB012VH; AB012VL
As to B12, in assay [11], the Kd is less than 0.0284 nM, the koff is 0.000284 s⁻¹ and the association rate constant (kon) was greater than 1e+07 M⁻¹ s⁻¹.

B13: DVD508 (VEGF/DLL4 DVD-Ig) (bispecific antibody, human IgG1)
VH: EVQLVESGGGLVQPGGSLRLSCAASGFTISDYWIHWVRQAPGKGLEWVAGITPAGGYTYYADSVKGRFTISADTSKNTAYLQMNSLRAEDTAVYYCARFVFFLPYAMDYWGQGTLVTVSSASTKGPEVQLQQSGPELVKPGASVKMSCKASGYTFTSYVINWVKQKPGQGLEWIGLINPYNDGTKYNEKFKVKATLTSDKSSSTAYMELSSLTSEDSAVYYCASYYYGSRYYFDYWGQGTTLTVSS
VL: DIQMTQSPSSLSASVGDRVTITCRASQDVSTAVAWYQQKPGKAPKLLIYSASFLYSGVPSRFSGSGSGTDFTLTISSLQPEDFATYYCQQSYTTPPTFGQGTKVEIKRTVAAPSVFIFPPDIQMTQSSSYLSVSLGGRVTITCKASDHINNWLAWYQQKPGNAPRLLISGATSLETGVPSRFSGSGSGKDYTLSITSLQTEDVATYYCQQYWSIPLTFGAGTKLELKR
notes: HC linker short, LC linker long; also called DVD508H; DVD508L
Regarding B13, the midpoint of the response in assay [4], the EC50, lay at 0.61 nM. This lies in the sub-nanomolar range.
